Measurements: patent US20130177528A1, “COMPOSITIONS AND METHODS FOR INHIBITING VIRAL INFECTION” (WESTERN UNIVERSITY OF HEALTH SCIENCES, priority 2011, published 2013)

Tests used:
HSV-1 (KOS) gL86 = assay: HSV-1 infection of HeLa, Vero and 293T cells, virus pre-incubated (Example 3); assay type: cell-based, herpes simplex virus type-1; conditions: virus 30 pfu/cell pre-incubated 90 min, 6 hr
Experimental: CN blocks herpes simplex virus type-1 (HSV-1) infection of natural target cells. HeLa, Vero and 293T cells were each grown to 100% confluency in 96-well plates. The β-galactosidase-expressing recombinant virus HSV-1 (KOS) HSV-1 gL86 (30 pfu/cell) was pre-incubated with CN at the concentration indicated in FIG. 7 or mock treated with 1 X phosphate saline buffer for 90 min at room temperature. After 6 hr, the cells were washed, permeabilized and incubated with ONPG substrate (3.0 mg/ml). The β-gal enzymatic activity was measured at an optical density of 410 nm (OD 410). Each value shown in FIG. 7 is the mean of three or more determinations (±SD). Mock treated HSV-1 with PBS was used as a control. HSV-1 infection of HeLa (panel A) and Vero and 293T cells (panel B) was blocked by CN.

[1] = tested on: HSV-1 strains F, G, and MP; assay: Infection of nectin-1 CHO Igβ cells by clinical HSV-1 strains, virus pre-incubated (Example 4); assay type: cell-based, herpes simplex virus type-1; conditions: MP at 25 pfu/cell pre-incubated 90 min
Experimental: In this experiment different clinical strains of HSV-1 (F, G, and MP strains of HSV-1 [37] at 25 pfu/cell) were either pre-incubated with 1×PBS (control) or with CN at the concentrations indicated in FIG. 8, panel A for 90 min at room temperature. After 90 min of incubation the two pools of viruses were incubated with Nectin-1 receptor expressing CHO Igβ cells that express β-galactosidase upon viral entry as described. The viral infection blocking was measured by ONPG assay (FIG. 8, panel A). Similar experiment was conducted using Lac Z encoded HSV-2 (333 gJ-reporter virus). HSV-2 is a genital herpes virus. […] Each value shown is the mean of three or more determinations (±SD).

[2] = tested on: HSV-1 glycoproteins (gB, gD, gH-gL) mediated cell-to-cell fusion; assay: Virus-free HSV-1 glycoprotein-mediated cell-to-cell fusion assay (Example 12); assay type: cell-based, human
Experimental: FIG. 15A-B show the inhibition of HSV-1 glycoprotein-induced cell-to-cell fusion by CN and proposed model for CN-based anti-HSV-1 activity during cell entry. (A) In this experiment the naturally susceptible target human corneal fibroblasts (CF) cells expressing gD-receptors and luciferase gene were pre-incubated with 1 μM contortrostatin (CN) and mixed in 1:1 ratio with the effector Chinese hamster ovary (CHO-K1) cells expressing herpes simplex virus type-1 (HSV-1) glycoproteins (gB, gD, gH-gL) along with T7 plasmid (white bar indicated as treated [Tr]). In parallel, CN-untreated CF cells were similarly mixed with effector cells as positive control (+; black bar). The target CF cells co-cultured with effector cells devoid of HSV-1 glycoproteins were considered as negative control (−; grey bar). Membrane fusion as a means of viral spread was detected by monitoring luciferase activity. Relative luciferase units (RLUs) were determined using a Sirius luminometer (Berthoid Detection Systems, Titertek Instruments, Inc., Huntsville, Ala., USA). Error bars represent SD. (B) A cartoon illustrates the CN-mediated HSV-1 inhibition that might affect three major steps (a-c) that are involved during HSV-1 entry. (a) CN (presented by hatching) binding to host cell surface integrin (presented by α and β subunits) may affect HSV -1 glycoprotein H (gH) binding to integrins. […]

B1: contortrostatin (protein)
chain: DAPANPCCDAATCKLTTGSQCADGLCCDQCKFMKEGTVCRRARGDDLDDYCNGISAGCPRNPFHA
HSV-1 infection (β-gal activity, OD 410) (HSV-1 (KOS) gL86; 293T cells): blocked
HSV-1 infection (β-gal activity, OD 410) (HSV-1 (KOS) gL86; HeLa cells): blocked
HSV-1 infection (β-gal activity, OD 410) (HSV-1 (KOS) gL86; Vero cells): blocked
HSV-1 infection blocking activity across viral strains (ONPG assay) [1]: not viral-strain specific
polykaryocyte formation ([2]; CN-treated target cells co-cultured with effector cells, data not shown): failed to form polykaryons
cell-to-cell fusion (luciferase activity, RLU) ([2]; target human CF treated with 1 μM, effector CHO-K1 cells expressing gB, gD, gH-gL, 1:1): impaired cell-to-cell fusion
